Source: patent publication US7078203 (UNIVERSITY OF NORTH CAROLINA AT CHAPEL HILL, dated 2006)

Key:
[1] = molecular target: CDC53 fused to the Gal4 DNA binding domain (pGBT8-CDC53) (yeast; S. cerevisiae, UniProt P04386 1-147; Q12018 1-815); assay: yeast two-hybrid
Source text: (§1) The yeast genome contains four cullin members, CDC53, CUL-B (ORF YGR003w), CUL-C(ORF YJL047c) and APC2. Each gene was fused in-frame with the Gal4 DNA binding domain and co-transformed with ScROC1 or ScAPC11 fused in-frame with the GAL4 activation domain. ScAPC2 was self-activating as a bait and was fused in-framed with the GAL4 activation domain and tested with ScROC1 fused in-frame with the DNA binding domain.

[2] = molecular target: CUL-B (ORF YGR003w) fused to the Gal4 DNA binding domain (yeast; S. cerevisiae, UniProt P04386 1-147; P53202 1-744); assay: yeast two-hybrid
Source text: as §1

[3] = molecular target: T1, HA-epitope tagged human ROC1 (human, UniProt P62877 1-108); assay: co-immunoprecipitation with anti-HA from [35S]-methionine labelled transfected cells
T1 construct: Expressed by transfection in mammalian cells; tag written first because of the name HA-ROC1; also called HA-ROC1
T1 sequence (P62877 whole entry): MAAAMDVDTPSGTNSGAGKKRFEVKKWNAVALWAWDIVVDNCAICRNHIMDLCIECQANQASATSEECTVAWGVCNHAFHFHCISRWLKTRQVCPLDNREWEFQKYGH

[4] = molecular target: T2, mouse APC2 fused to the Gal4 DNA-binding domain (yeast; mouse, UniProt P04386 1-147; Q8BZQ7 15-837, limits assumed); assay: yeast two-hybrid, -LWH with 5 mM 3-AT
T2 construct: also called GAL4BD-APC2

myc-epitope tagged APC2 = myc-epitope tagged APC2 (mouse, UniProt Q8BZQ7 15-837); assay: co-immunoprecipitation from transfected HeLa cells
Chain of myc-epitope tagged APC2 (Q8BZQ7 15-837): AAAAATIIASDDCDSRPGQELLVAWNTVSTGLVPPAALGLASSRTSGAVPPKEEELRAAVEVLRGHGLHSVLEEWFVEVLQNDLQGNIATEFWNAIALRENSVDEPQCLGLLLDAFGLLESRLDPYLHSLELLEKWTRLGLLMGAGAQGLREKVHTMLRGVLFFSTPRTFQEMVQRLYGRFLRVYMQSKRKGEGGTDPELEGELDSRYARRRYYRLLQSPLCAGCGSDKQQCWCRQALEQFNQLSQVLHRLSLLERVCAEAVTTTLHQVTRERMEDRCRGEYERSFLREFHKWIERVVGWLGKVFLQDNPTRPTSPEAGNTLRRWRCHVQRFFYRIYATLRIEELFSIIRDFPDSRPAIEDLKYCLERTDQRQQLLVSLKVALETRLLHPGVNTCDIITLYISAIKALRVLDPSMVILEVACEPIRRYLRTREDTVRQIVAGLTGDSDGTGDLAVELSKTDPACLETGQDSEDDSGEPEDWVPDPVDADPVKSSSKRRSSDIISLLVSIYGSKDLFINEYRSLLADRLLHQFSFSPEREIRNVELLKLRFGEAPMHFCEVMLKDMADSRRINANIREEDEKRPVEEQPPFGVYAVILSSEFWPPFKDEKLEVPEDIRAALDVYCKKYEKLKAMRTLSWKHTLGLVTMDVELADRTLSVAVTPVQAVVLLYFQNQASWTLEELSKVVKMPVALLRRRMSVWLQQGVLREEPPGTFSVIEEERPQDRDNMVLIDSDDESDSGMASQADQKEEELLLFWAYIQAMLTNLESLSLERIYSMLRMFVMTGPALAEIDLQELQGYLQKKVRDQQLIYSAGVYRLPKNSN

[5] = molecular target: human ROC1 (untagged: in vitro translated or endogenous in HeLa and Saos-2 cells) (human, UniProt P62877 1-108); assay: anti-ROC1 immunopurification from HeLa lysate, microsequencing of co-precipitated 70 to 120 kDa proteins
Chain of human ROC1 (untagged: in vitro translated or endogenous in HeLa and Saos-2 cells) (P62877 whole entry): as the sequence (P62877 whole entry) above

B1: ScAPC11 fused to the GAL4 activation domain (other, S. cerevisiae, UniProt Q12157 1-165, looked up, not shown: large carriers)
chain: MKVKINEVHSVFAWSWHIPSTSDEDAANNDPIGNDEDEDVCGICRASYNGTCPSCKFPGDQCPLVIGLCHHNFHDHCIYRWLDTPTSKGLCPMCRQTFQLQKGLAINDAHVQKFVEIVSRRREEMIEEGVAEEFVDFDEPIRQNTDNPIGRQQVDTILDEDFLLR
notes: also called yeast APC11
binding result [1]: no binding
binding result [2]: no binding

B2: myc-epitope tagged mouse cullin 4A (other, UniProt Q3TCH7 1-759, looked up, not shown: small tags and cut ends)
chain: MADEGPRKGSVSALMGRTNGLTKPAALAGGPAKPGGTGGSRKLVIKNFRDRPRLPDNYTQDTWRKLHEAVKAIQSSTSIRYNLEELYQAVENLCSHKVSPTLYKQLRQVCEDHVQAQILPFREDSLDSVLFLKKINTCWQDHCRQMIMIRSIFLFLDRTYVLQNSMLPSIWDMGLELFRNHIISDRMVQSKTIDGILLLIGRERSGEAVDRSLLRSLLSMLSDLQVYKDSFELKFLEETNCLYAAEGQRLMQDREVPEYLNHVSKRLEEEADRVITYLDHSTQKPLIACVEKQLLGEHLTAILQKGLEHLLDENRVPDLTQMYQLFSRVKGGQHALLQHWSEYIKTFGTTIVINPEKDKDMVQDLLDFKDKVDHVVEVCFQRNERFINLMKESFETFINKRPNKPAELIAKHVDSKLRAGNKEATDEELERILDKIMILFRFIHGKDVFEAFYKKDLAKRLLVGKSASVDAEKSMLSKLKHECGAAFTSKLEGMFKDMELSKDIMVHFKQHMQNQSAPGPIDLTVNILTMGYWPTYTPMEVHLPPEMVRLQEVFKTFYLGKHSGRKLQWQTTLGHAVLKADFKEGKKEFQVSLFQTLVLLMFNEGDGFSFEEIKMATGIEDSELRRTLQSLACGKARVLIKSPKGKEVEDGDKFIFNADFKHKLFRIKINQIQMKETVEEQVSTTERVFQDRQYQIDAAIVRIMKMRKTLGHNLLVSELYNQLKFPVKPGDLKKRIESLIDRDYMERDKDSPNQYHYVA
notes: also called myc-mCUL4A
binding result [3]: binds

B3: full length human ROC2 fused to the Gal4 DNA activation domain (other, not shown: large carriers)
chain: MFSLKKWNPVAMWSWDVECDTCAICRVQVMDACLRCQAENKQEDCVVVWGECNHSFHNCCMSLWVKQNNRCPLCQQDWVVQRIGK
notes: Yeast two-hybrid prey
binding result [4]: no binding

B4: HA tagged human ROC2 (other, not shown: small tags and cut ends)
chain: MFSLKKWNPVAMWSWDVECDTCAICRVQVMDACLRCQAENKQEDCVVVWGECNHSFHNCCMSLWVKQNNRCPLCQQDWVVQRIGK
notes: Migrates as a doublet in transfected cells; also called HA-ROC2
binding result (myc-epitope tagged APC2): no binding

B5: human CUL2 (endogenous in HeLa cells) (other, UniProt Q13617 1-745, looked up)
chain: MSLKPRVVDFDETWNKLLTTIKAVVMLEYVERATWNDRFSDIYALCVAYPEPLGERLYTETKIFLENHVRHLHKRVLESEEQVLVMYHRYWEEYSKGADYMDCLYRYLNTQFIKKNKLTEADLQYGYGGVDMNEPLMEIGELALDMWRKLMVEPLQAILIRMLLREIKNDRGGEDPNQKVIHGVINSFVHVEQYKKKFPLKFYQEIFESPFLTETGEYYKQEASNLLQESNCSQYMEKVLGRLKDEEIRCRKYLHPSSYTKVIHECQQRMVADHLQFLHAECHNIIRQEKKNDMANMYVLLRAVSTGLPHMIQELQNHIHDEGLRATSNLTQENMPTLFVESVLEVHGKFVQLINTVLNGDQHFMSALDKALTSVVNYREPKSVCKAPELLAKYCDNLLKKSAKGMTENEVEDRLTSFITVFKYIDDKDVFQKFYARMLAKRLIHGLSMSMDSEEAMINKLKQACGYEFTSKLHRMYTDMSVSADLNNKFNNFIKNQDTVIDLGISFQIYVLQAGAWPLTQAPSSTFAIPQELEKSVQMFELFYSQHFSGRKLTWLHYLCTGEVKMNYLGKPYVAMVTTYQMAVLLAFNNSETVSYKELQDSTQMNEKELTKTIKSLLDVKMINHDSEKEDIDAESSFSLNMNFSSKRTKFKITTSMQKDTPQEMEQTRSAVDEDRKMYLQAAIVRIMKARKVLRHNALIQEVISQSRARFNPSISMIKKCIEVLIDKQYIERSQASADEYSYVA
notes: also called cullin 2
binding result [5]: binds
